In paper PMC6604391 one finds Km of casein hydrolysis (Lineweaver-Burk, pH 9.5, 70 °C) data, which are given here for 1 substance.

Test [1] deals with casein.
The target in test [2] is casein. This is another data set of the same source.

Where two headings read alike, the source gives them in different places.

Regarding “SPPS, serine alkaline protease from Pleurotus sajor-caju strain CTM10057 (enzyme)”, the Km of casein hydrolysis (Lineweaver-Burk, pH 9.5, 70 °C) was found to be 0.275 mg/mL with casein [1] and 0.295 mg/mL in the test with casein [2].
